Experimental data published in US20100166741A1 (Genentech, published 2010).
Residue numbers refer to the chain shown, from its start. In names and notes the source's numbering stands.

Tests used:
[1] = biological target: T1, human FcγRIIb extracellular domain, His-tagged GST fusion (human, UniProt P31994 43-217); test: ELISA, captured FcγR-GST;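 note: antibody variants applied as dilution series to receptor wells, with retained antibody read out via an HRP-linked goat F(ab′)2 fragment recognizing human Fab′2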
T1 construct: extracellular domain; also called hFcgRIIb; CD32B; not shown: C-terminal Gly/His6/GST tag
T1 sequence (looked up): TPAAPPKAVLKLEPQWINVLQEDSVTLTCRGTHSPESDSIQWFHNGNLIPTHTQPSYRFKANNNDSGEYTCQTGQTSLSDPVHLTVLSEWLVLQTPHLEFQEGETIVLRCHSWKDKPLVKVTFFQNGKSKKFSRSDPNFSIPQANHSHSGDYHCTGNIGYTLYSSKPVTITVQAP

[2] = biological target: T2, mouse FcγRI extracellular domain, His-tagged GST fusion (mouse, UniProt P26151 25-297); test: ELISA, captured FcγR-GST;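 note: antibody variants applied as dilution series to receptor wells, with retained antibody read out via an HRP-linked goat F(ab′)2 fragment recognizing human Fab′2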
T2 construct: extracellular domain; also called Mouse I; mFcγRI; not shown: His tag and GST
T2 sequence (looked up): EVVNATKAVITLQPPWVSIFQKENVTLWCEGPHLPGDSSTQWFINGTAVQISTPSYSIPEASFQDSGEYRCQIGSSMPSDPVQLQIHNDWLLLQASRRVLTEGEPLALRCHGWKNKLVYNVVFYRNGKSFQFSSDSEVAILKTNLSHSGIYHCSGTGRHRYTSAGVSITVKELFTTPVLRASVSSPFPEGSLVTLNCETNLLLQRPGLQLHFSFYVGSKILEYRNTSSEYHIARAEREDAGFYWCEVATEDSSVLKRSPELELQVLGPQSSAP

[3] = biological target: T3, mouse FcγRII extracellular domain, His-tagged GST fusion (mouse, UniProt P08101 30-210); test: ELISA, captured FcγR-GST;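 note: antibody variants applied as dilution series to receptor wells, with retained antibody read out via an HRP-linked goat F(ab′)2 fragment recognizing human Fab′2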
T3 construct: extracellular domain; also called Mouse II; not shown: His tag and GST
T3 sequence (looked up): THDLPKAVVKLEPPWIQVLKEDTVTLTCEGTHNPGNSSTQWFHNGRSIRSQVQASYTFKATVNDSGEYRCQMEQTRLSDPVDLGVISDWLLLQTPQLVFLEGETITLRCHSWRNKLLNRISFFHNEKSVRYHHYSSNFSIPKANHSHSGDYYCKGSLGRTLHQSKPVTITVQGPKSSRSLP

[4] = biological target: T4, mouse FcγRIII extracellular domain, His-tagged GST fusion (mouse, UniProt P08508 31-215); test: ELISA, captured FcγR-GST;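 note: antibody variants applied as dilution series to receptor wells, with retained antibody read out via an HRP-linked goat F(ab′)2 fragment recognizing human Fab′2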
T4 construct: extracellular domain; also called Mouse III; not shown: His tag and GST
T4 sequence (looked up): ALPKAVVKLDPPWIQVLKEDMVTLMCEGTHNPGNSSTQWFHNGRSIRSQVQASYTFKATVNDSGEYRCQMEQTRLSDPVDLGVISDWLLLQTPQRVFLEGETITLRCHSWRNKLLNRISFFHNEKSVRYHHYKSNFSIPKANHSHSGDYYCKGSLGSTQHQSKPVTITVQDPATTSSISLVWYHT

[5] = biological target: T5, human FcγRI extracellular domain, His-tagged GST fusion (human, UniProt P12314 16-292); test: ELISA, captured FcγR-GST
T5 construct: extracellular domain; also called hFcgRI; FcγRIA; not shown: C-terminal Gly/His6/GST tag

[6] = biological target: T6, human FcγRIIa extracellular domain, His-tagged GST fusion (human, UniProt P12318 34-217); test: ELISA, captured FcγR-GST
T6 construct: extracellular domain; also called hFcgRIIa; CD32A; not shown: C-terminal Gly/His6/GST tag
T6 sequence (looked up): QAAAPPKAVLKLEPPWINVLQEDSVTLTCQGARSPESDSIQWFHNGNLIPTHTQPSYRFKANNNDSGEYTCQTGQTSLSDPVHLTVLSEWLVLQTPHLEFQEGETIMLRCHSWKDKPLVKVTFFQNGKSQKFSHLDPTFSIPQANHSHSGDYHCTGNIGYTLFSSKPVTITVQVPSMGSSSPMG

[7] = biological target: T5, human FcγRI extracellular domain, …; test: ELISA, FcγR-His-GST captured by anti-GST
[8] = biological target: T7, human BR3 on the cell surface (BJAB cells; primary human B cells) (human, UniProt Q96RJ3 1-184); test: competition with 25 nM FLAG-BAFF on BJAB cells
T7 construct: whole, on cells; also called BAFF-R; cell surface BR3

[9] = biological target: T7, human BR3 on the cell surface (BJAB …); test: direct binding to BJAB cells, anti-human IgG Fc-HRP
[10] = biological target: T1, human FcγRIIb extracellular domain, …; test: ELISA, FcγR-His-GST captured by anti-GST, complexed IgG
[11] = biological target: T6, human FcγRIIa extracellular domain, …; test: as above
[12] = biological target: T8, human BR3 extracellular domain (human, UniProt Q96RJ3 1-78); test: BIAcore, BR3 ECD on chip, IgG in solution, 1:1 Langmuir model
T8 construct: extracellular domain; also called BR3 ECD; Br3 ECD WT

[13] = biological target: T8, human BR3 extracellular domain; test: BIAcore, IgG on chip, BR3 ECD in solution, 1:1 Langmuir model
[14] = biological target: T8, human BR3 extracellular domain; test: BIAcore, BR3 ECD on chip, IgG in solution, bivalent analyte model
[15] = biological target: T9, human FcγRIII (CD16) on NK cells (human, UniProt P08637 17-254); test: cell-based or functional assay
[16] = biological target: T9, human FcγRIII (CD16) on NK cells; test: cell-based or functional assay; remark: listed apart in the source
[17] = biological target: T1, human FcγRIIb extracellular domain, …; test: Fcγ receptor ELISA; bar = fold increase in binding over Herceptin, log axis 0.1-1000
[18] = biological target: T5, human FcγRI extracellular domain, …; test: as above
[19] = biological target: T7, human BR3 on the cell surface (BJAB …); test: BJAB binding assay

B1: Hu9.1RF IgG1 (antibody)
heavy: not shown
light: DIQMTQSPSSLSASVGDRVTITCKSSQSLLYSSNQNNYLAWYQQKPGKAPKLLIYWASTRESGVPSRFSGSGSGTDFTLTISSLQPEDFATYYCQQYYTYPYTFGQGTKVEIKRTVAAPSVFIFPPSDEQLKSGTASVVCLLNNFYPREAKVQWKVDNALQSGNSQESVTEQDSKDSTYSLSSTLTLSKADYEKHKVYACEVTHQGLSSPVTKSFNRGEC
notes: Humanized IgG1 with normal (fucosylated) glycans; also called WT; WT(9.1RF)
[1]
  fold improvement in binding vs Herceptin (EC50herceptin/EC50sample): 0.7 fold
[2]
  fold improvement in binding vs Herceptin (EC50herceptin/EC50sample): 1.2 fold
[3]
  fold improvement in binding vs Herceptin (EC50herceptin/EC50sample): 0.7 fold
[4]
  fold improvement in binding vs Herceptin (EC50herceptin/EC50sample): 0.8 fold
[5]
  fold improvement in binding vs Herceptin (EC50herceptin/EC50sample): 1 fold
[6]
  fold improvement in binding vs Herceptin (EC50herceptin/EC50sample): 2.3 fold
[7]
  binding relative to 9.1-RF: 1
[8]
  IC50: 8.8 nM
[9]
  EC50: 0.92 nM
[10]
  binding relative to 9.1-RF: 1
[11]
  binding relative to 9.1-RF: 1
[12]
  Kd: 0.03 nM
  koff: 5.21e-05 s⁻¹
  kon: 1.99e+06 M⁻¹ s⁻¹
[13]
  Kd: 0.25 nM
  koff: 0.000253 s⁻¹
  kon: 995000 M⁻¹ s⁻¹
[14]
  Kd: 0.52 nM
  koff: 0.000339 s⁻¹
  kon: 658000 M⁻¹ s⁻¹

B2: 9.1(6) (antibody, human IgG1, kappa)
heavy: EVQLVESGGGLVQPGGSLRLSCAASGFTVTAYYMSWVRQAPGKGLEWVGFIRDKANGYTTEYNPSVKGRFTISRDTSKNTFYLQMNSLRAEDTAVYYCAQVRRALDYWGQGTLVTVSSASTKGPSVFPLAPSSKSTSGGTAALGCLVKDYFPEPVTVSWNSGALTSGVHTFPAVLQSSGLYSLSSVVTVPSSSLGTQTYICNVNHKPSNTKVDKKVEPKSCDKTHTCPPCPAPELLGGPSVFLFPPKPKDTLMISRTPEVTCVVVDVSHEDPEVKFNWYVDGVEVHNAKTKPREEQYNATYRVVSVLTVLHQDWLNGKEYKCKVSNKALPAPIAATISKAKGQPREPQVYTLPPSREEMTKNQVSLTCLVKGFYPSDIAVEWESNGQPENNYKTTPPVLDSDGSFFLYSKLTVDKSRWQQGNVFSCSVMHEALHNHYTQKSLSLSPG
light: B1 light
notes: Fc variant of 9.1RF, expressed in CHO; also called 9.1RF S298A/E333A/K334A
[15]
  ADCC on BJAB cells with NK cells, relative EC50 values against 9.1RF: 2.8 fold
[16]
  ADCC on BJAB cells with NK cells, relative fold increase compared to 9.1RF: 3 fold
[1]
  fold improvement in binding vs Herceptin (EC50herceptin/EC50sample): 0.4 fold
[2]
  fold improvement in binding vs Herceptin (EC50herceptin/EC50sample): 2.5 fold
[3]
  fold improvement in binding vs Herceptin (EC50herceptin/EC50sample): 0.4 fold
[4]
  fold improvement in binding vs Herceptin (EC50herceptin/EC50sample): 0.6 fold
[5]
  fold improvement in binding vs Herceptin (EC50herceptin/EC50sample): 0.7 fold
[6]
  fold improvement in binding vs Herceptin (EC50herceptin/EC50sample): 0.2 fold

B3: 9.1(9) (antibody, human IgG1, kappa)
heavy: B2 heavy with S240D, H269D, I333E, A334E, A335K
light: B1 light
notes: Fc variant of 9.1RF, expressed in 293 cells; also called 9.1RF 239D/268D/298A/332E
[16]
  ADCC on BJAB cells with NK cells, relative fold increase compared to 9.1RF: 10 fold
[17]
  binding result: binds
[18]
  binding result: binds

B4: 9.1(10) (antibody, human IgG1, kappa)
heavy: B2 heavy with S240D, H269D, K327A, I333E, A334E, A335K
light: B1 light
notes: Fc variant of 9.1RF, expressed in 293 cells; also called 9.1RF 239D/268D/298A/326A/332E
[16]
  ADCC on BJAB cells with NK cells, relative fold increase compared to 9.1RF: 10 fold
[17]
  binding result: binds
[18]
  binding result: binds

B5: 9.1-RF N434A (antibody, human IgG1, kappa)
heavy: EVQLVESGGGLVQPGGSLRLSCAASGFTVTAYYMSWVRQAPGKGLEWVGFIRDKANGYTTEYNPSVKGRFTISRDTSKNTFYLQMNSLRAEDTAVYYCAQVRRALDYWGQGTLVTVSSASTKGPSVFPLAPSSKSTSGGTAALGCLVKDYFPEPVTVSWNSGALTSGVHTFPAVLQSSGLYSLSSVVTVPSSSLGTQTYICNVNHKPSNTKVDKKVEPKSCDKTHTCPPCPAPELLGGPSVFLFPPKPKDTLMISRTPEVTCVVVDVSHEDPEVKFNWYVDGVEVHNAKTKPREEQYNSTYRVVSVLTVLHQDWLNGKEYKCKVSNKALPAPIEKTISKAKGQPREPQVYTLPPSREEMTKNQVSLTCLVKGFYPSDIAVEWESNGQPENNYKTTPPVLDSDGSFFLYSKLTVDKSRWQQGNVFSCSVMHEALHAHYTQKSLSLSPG
light: B1 light
notes: also called 9.1RF-IgG (N434X), X = A
[7]
  binding relative to 9.1-RF: 0.97
[10]
  binding relative to 9.1-RF: 0.45
[11]
  binding relative to 9.1-RF: 0.66

B6: 9.1-RF N434W (antibody, human IgG1, kappa)
heavy: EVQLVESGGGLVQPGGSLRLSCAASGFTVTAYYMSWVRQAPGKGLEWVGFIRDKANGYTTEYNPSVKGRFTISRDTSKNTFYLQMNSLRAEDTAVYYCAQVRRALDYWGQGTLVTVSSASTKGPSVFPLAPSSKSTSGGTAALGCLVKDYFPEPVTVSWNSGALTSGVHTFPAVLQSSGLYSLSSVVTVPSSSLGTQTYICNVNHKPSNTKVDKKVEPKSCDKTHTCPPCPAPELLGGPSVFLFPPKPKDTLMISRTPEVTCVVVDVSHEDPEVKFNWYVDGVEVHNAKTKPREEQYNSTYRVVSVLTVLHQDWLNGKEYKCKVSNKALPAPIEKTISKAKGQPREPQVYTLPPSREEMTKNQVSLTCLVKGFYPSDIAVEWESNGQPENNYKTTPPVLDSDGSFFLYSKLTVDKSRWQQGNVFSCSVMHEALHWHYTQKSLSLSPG
light: B1 light
notes: also called Hu9.1RF IgG1 with an N434W mutation; Control (agonistic positive control)
[7]
  binding relative to 9.1-RF: 1
[10]
  binding relative to 9.1-RF: 0.4
[11]
  binding relative to 9.1-RF: 0.64

B7: afucosylated Hu9.1RF IgG1 (antibody)
heavy: not shown
light: B1 light
modifications: N-linked Fc carbohydrate lacks fucose (made in a cell line lacking fucosyltransferase; 100% afucosylated by paragraph 557)
notes: also called AF Hu9.1RF IgG1; Hu9.1RF IgG1 AF
[15]
  ADCC EC50 on BJAB cells with NK cells, improvement over 2% afucosylated Hu9.1RF IgG1: > 6 fold
  ADCC percent cytotoxicity on BJAB cells with NK cells, increase over 2% afucosylated Hu9.1RF IgG1: > 3 fold
[8]
  IC50: 3.6 nM
[9]
  EC50: 0.49 nM
[12]
  Kd: 0.04 nM
  koff: 5.41e-05 s⁻¹
  kon: 1.49e+06 M⁻¹ s⁻¹
[13]
  Kd: 0.23 nM
  koff: 0.000199 s⁻¹
  kon: 852000 M⁻¹ s⁻¹
[14]
  Kd: 0.28 nM
  koff: 0.000149 s⁻¹
  kon: 532000 M⁻¹ s⁻¹

B8: V3-1m (antibody, mouse IgG2a, V domains shown)
VH: EVQLVESGGGLVQPGGSLRLSCAASGFTISSNSIHWVRQAPGKGLEWVAWITPSDGNTDYADSVKGRFTISADTSKNTAYLQMNSLRAEDTAVYYCARRVCYNRLGVCAGGMDYWGQGTLVTVSS
VL: DIQMTQSPSSLSASVGDRVTITCRASQDVSTAVAWYQQKPGKAPKLLIYSASFLYSGVPSRFSGSGSGTDFTLTISSLQPEDFATYYCQQSRITPPTFGQGTKVEIKR
notes: also called mV3-1
[19]
  binding result: binds

B9: V3-1h (antibody, human IgG1, V domains shown)
VH: B8 VH
VL: B8 VL
[19]
  binding result: binds
